Data reported in PMC11587861, “A high-throughput search for intracellular factors that affect RNA folding identifies E. coli proteins PepA and YagL as RNA chaperones that promote RNA remodelling”.

Assays:
PepA-H6 = biological target: T1, PepA-H6 (Escherichia coli, UniProt P68767 1-503); test: filter binding; 75 mM Tris-HCl pH 7.5, 0.4 mM spermidine, 0.1 mM MgCl2, 50 mM NaCl, 0.5 mM EDTA, 0.25 mM DTT, 6% glycerol; 10 min at room temperature; 50 fmol RNA in 60 µL, protein 0-10 µM; details: protein: recombinant, tags: C-terminal His6, chain copies: 6, label: 5'-32P (printed as [31]P)
T1 sequence: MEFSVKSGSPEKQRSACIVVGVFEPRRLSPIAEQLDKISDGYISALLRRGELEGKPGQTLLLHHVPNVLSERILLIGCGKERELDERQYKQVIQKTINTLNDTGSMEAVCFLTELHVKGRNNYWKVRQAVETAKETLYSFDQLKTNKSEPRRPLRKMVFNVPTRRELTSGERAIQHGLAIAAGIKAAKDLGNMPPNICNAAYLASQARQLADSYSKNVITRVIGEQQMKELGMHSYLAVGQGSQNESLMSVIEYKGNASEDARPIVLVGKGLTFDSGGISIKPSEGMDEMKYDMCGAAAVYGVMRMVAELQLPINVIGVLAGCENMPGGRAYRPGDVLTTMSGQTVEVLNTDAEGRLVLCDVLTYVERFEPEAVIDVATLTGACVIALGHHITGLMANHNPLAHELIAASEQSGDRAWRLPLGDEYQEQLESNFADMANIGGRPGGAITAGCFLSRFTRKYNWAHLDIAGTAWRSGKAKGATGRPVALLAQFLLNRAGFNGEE

YagL-H6 = biological target: T2, YagL-H6 (Escherichia coli, UniProt P77607 1-232); test: as above; details: protein: recombinant, label: 5'-32P (printed as [31]P)
T2 sequence: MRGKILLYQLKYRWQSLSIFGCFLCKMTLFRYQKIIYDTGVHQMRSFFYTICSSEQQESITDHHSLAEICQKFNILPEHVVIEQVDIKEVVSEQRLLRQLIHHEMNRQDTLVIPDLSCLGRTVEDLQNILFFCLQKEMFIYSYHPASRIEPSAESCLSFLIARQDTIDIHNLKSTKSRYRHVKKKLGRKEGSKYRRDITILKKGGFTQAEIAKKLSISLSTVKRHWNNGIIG

Binder | Kd (PepA-H6; single strand) [nM] | Kd (YagL-H6; single strand) [nM] | Kd (PepA-H6; hairpin) [nM] | Kd (YagL-H6; hairpin) [nM]
AUGUGGAAAAUCUCUAGCAGU (ssRNA) [21 R+] | 2000 ± 600 | 4500 ± 300 | – | –
GCUCUAGAGCAUUAUGUUCAGAUAAGG (structured_RNA) [hairpin] | – | – | 600 ± 400 | 2400 ± 300
CUGCUAGAGAUUUUCCACAU (ssRNA) [21 R-] | 600 ± 300 | 5000 ± 1200 | – | –
